B1: ETS-like protein pointed (Drosophila melanogaster (Fruit fly)), P51023 (parent)
chain: MELAICKTDLSATKFMLPPALPSSAAIGSSSAVASTASHFLDKAAHELFQLNAINGHLFKSPASSHLNSVGSPSILSQLNGIGNSGNHSGQVSTMRLKKNRKVTFLSSLVESKNIFIKEEPIHGCKDLCSLSDISDHEASLEVPTALPPLTPGTNRKVNEVLKASFASWEKEVQKCNITKDPREWTEEHVIYWLNWAKNEFSLVSMNLDPFYKMKGRAMVDLGKEKFLAITPPFTGDILWEHLDILQKDCEKPNEDIVHGNSFESATTASVCGSDHQVANYPNETHANSNNSSINSRLSMDYVTSAGNSDNKNFHRATPHSHNGYNTSNTHDRINNSTPPQQQQSQQPTVNGSGSASSNNNNSMLPPAVQQSNNENNNTSSSNTNNSSNNNNNSGGSNNSNAGSNNNNNNNNNINFMAAAAIFQHHLKEEPGTQNGNIGGYGGGSNSQNDPTDLSSYGLPAHLAAYGGGSGSGPTGGRSSGGGGDESDYHSTISAQDHQSQQSSGGNGSGGASGGSTGNSNGYLDSSSEFYGSYAGRNRFHDGYPPEFTPYDAQSFQSMGPQPTAMDQWGAAHAHQHPAAYMSTLGLDKGLLGGYTTQGGVPCFTGSGPIQLWQFLLELLLDKTCQSFISWTGDGWEFKLTDPDEVARRWGIRKNKPKMNYEKLSRGLRYYYDKNIIHKTAGKRYVYRFVCDLQNLVGHTPEELVAKYDLKIEKKDVD

Variants of: B1
Conditions: with erka_drome rl

| Variant | effect of a mutation on the interaction |
| --- | --- |
| F234A | decreasing interaction |
| T151A | disrupting interaction |
| L228R | decreasing interaction |

— IntAct's records for PubMed 16362034
